Test results from FireProtDB.

B1: Alpha-lactalbumin, P00712 (parent)
chain: MMSFVSLLLVGILFHATQAEQLTKCEVFQKLKDLKDYGGVSLPEWVCTAFHTSGYDTQAIVQNNDSTEYGLFQINNKIWCKDDQNPHSRNICNISCDKFLDDDLTDDIVCAKKILDKVGINYWLAHKALCSEKLDQWLCEKL

Variants of: B1
Conditions: Capra hircus; pH 7; 25 °C; GdnHCl; CD; sodium cacodylate 50 mM; NaCl 50 mM; reversible: yes; structure 1HFY; whole UniProt chain shown

Variant	ddG of mutation (higher = less stable)	denaturant m value	denaturant midpoint (higher = more stable)	unfolding free energy
A49I T52I	-0.4 kcal/mol	2.1 kcal/mol/M	2.85 M	6.1 kcal/mol
A49T	-1.7 kcal/mol	3.1 kcal/mol/M	2.44 M	7.4 kcal/mol
A49I	-2.4 kcal/mol	2.7 kcal/mol/M	3.01 M	8.1 kcal/mol
T48I	-4.4 kcal/mol	2.6 kcal/mol/M	3.93 M	10.1 kcal/mol
T52I	1.1 kcal/mol	2 kcal/mol/M	2.31 M	4.6 kcal/mol
